The values that follow are results of earlier work, collected in patent US20180185417.

This data set addresses CD31 (PECAM-1) (Homo sapiens) (UniProt P16284). The settings on record: CITED reported affinity of the commercial aptamer (1.14×10−9 M), method not stated.

Consider CD31 aptamer (APTSCI CD31-2196BCI), for which the Kd (usually the free concentration of one partner at which half of the binding sites on the other are occupied at equilibrium, for simple one-to-one binding) is 1.14 nM.
